From US20200317768A1 (published 2020)

T1: cynomolgus monkey FcγRIIa2 extracellular domain, His-tagged (cynomolgus monkey)
T1 construct: also called cyno FcgRIIa2; cynoFcγRIIa2; not shown: His-tag added to the C-terminus
T1 chain: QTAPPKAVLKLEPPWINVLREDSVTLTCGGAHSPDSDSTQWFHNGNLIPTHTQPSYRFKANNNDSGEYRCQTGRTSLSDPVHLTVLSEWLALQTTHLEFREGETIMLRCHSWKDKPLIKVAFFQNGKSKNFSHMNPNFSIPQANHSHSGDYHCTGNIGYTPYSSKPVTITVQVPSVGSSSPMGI

T2: human FcγRIIaR extracellular domain, His-tagged (human, UniProt P12318 34-217)
T2 construct: also called human FcgRIIaR; FcγRIIa (type R); not shown: His-tag added to the C-terminus
T2 chain: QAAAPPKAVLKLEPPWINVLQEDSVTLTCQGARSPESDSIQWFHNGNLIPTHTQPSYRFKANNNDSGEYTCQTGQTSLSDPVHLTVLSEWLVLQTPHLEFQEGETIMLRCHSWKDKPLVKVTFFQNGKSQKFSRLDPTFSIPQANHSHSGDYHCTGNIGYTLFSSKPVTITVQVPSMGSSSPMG

T3: cynomolgus monkey FcγRIIa1 extracellular domain, His-tagged (cynomolgus monkey)
T3 construct: also called cyno FcgRIIa1; cynoFcγRIIa1; not shown: His-tag added to the C-terminus
T3 chain: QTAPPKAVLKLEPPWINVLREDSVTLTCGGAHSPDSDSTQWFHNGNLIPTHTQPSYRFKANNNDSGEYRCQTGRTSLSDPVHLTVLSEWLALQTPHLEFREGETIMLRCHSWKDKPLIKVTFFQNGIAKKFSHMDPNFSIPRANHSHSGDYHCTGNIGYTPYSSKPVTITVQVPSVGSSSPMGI


Columns and labels:
Assay in all cases: SPR; KD of SG1 divided by KD of the variant;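 note: relative to parent M103205H795-SG1 carrying the SG1 human heavy chain constant region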
[1] = target: T1, cynomolgus monkey FcγRIIa2 …
Experimental: (§1) Regarding such interactions, KD values were calculated using the following 1:1 binding model described in BIACORE® T100 Software Handbook BR1006-48 Edition AE.
(§2) The behavior of interacting molecules according to the 1:1 binding model on BIACORE® can be described by Equation 1: Req=C·R max/(KD+C)+RI, wherein, Req is a plot of steady-state binding levels to analyte concentration. C is concentration, RI is bulk refractive index contribution in the sample, and Rmax is analyte binding capacity of the surface. When this equation is rearranged, KD can be expressed as Equation 2: KD=C·Rmax/(Req−RI)−C. KD can be calculated by substituting the values of Rmax, RI, and C into Equation 1 or Equation 2. From the current measurement conditions, RI=0, C=2 μmol/L can be used.
(§3) The resultant variants were expressed using M103202L889-SK1 as light chain and their affinity to human and cynoFcγRs were evaluated (Table 21).

[2] = target: T2, human FcγRIIaR extracellular domain, …
Experimental: as §1, §2, §3

[3] = target: T3, cynomolgus monkey FcγRIIa1 …
Experimental: as §1, §2, §3

[4] = target: T4, human FcγRIIIaV extracellular domain, His-tagged (human, UniProt P08637 17-208)
T4 construct: also called human FcgRIIIaV; not shown: His-tag added to the C-terminus
Experimental: as §1, §2, §3

[5] = target: T5, cynomolgus monkey FcγRIIIaS extracellular domain, His-tagged (cynomolgus monkey, UniProt A3RFZ7 21-206 (rhesus entry))
T5 construct: also called cyno FcgRIIIaS; cynoFcγRIIIaS; not shown: His-tag added to the C-terminus
Experimental: as §1, §2, §3

T5 sequence (A3RFZ7 21-206): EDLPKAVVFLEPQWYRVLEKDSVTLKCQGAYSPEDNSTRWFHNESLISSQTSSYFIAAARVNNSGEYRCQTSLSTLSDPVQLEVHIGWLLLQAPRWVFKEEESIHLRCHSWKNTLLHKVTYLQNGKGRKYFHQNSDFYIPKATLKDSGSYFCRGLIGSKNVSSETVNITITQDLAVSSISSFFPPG
T4 sequence (P08637 17-208 F176V): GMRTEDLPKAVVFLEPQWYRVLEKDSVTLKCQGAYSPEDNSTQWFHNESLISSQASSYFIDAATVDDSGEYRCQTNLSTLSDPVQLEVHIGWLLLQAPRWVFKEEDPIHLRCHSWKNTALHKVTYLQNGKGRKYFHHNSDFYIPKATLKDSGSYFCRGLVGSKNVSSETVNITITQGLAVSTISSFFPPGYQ

Binder | KD fold (SG1 = 1) [1] | KD fold (SG1 = 1) [2] | KD fold (SG1 = 1) [3] | KD fold (SG1 = 1) [4] | KD fold (SG1 = 1) [5]
M103205H795-MY263/M103202L889-SK1 (antibody, human IgG1, kappa, copies: 2 + 2) heavy: QVTLKESGPVLVKPTETLTLTCTVSGIDLSHDDISWVRQAPGKGLEWVGIISYAGSTYYASWAKGRLTISKDTSKNQVVLTMTNMDPVDTATYYCARGVPAYSHGGDLWGQGTLVTVSSASTKGPSVFPLAPSSKSTSGGTAALGCLVKDYFPEPVTVSWNSGALTSGVHTFPAVLQSSGLYSLSSVVTVPSSSLGTQTYICNVNHKPSNTKVDKKVEPKSCDKTHTCPPCPAPELLQGPSVFLFPPKPKDTLMISRTPEVTCVVVDVSDEDPEVKFNWYVDGVEVHNAKTKPREEQYNSTYRVVSVLTVLHQDWLNGKEYKCKVSNKALPKPIEKTISKAKGQPREPQVYTLPPSREEMTKNQVSLTCLVKGFYPSDIAVEWESNGQPENNYKTTPPVLDSDGSFFLYSKLTVDKSRWQQGNVFSCSVMHEALHNHYTQKSLSLSP light: DIVMTQSPATLSLSPGERATLSCTSSQSVYHANWLSWFQQKPGQPPKLLIYWASTLAYGVPSRFSGSGSGTDFTLTISSLQPEDAATYYCAGGYGGGRYAFGQGTKVEIKRTVAAPSVFIFPPSDEQLKSGTASVVCLLNNFYPREAKVQWKVDNALQSGNSQESVTEQDSKDSTYSLSSTLTLSKADYEKHKVYACEVTHQGLSSPVTKSFNRGEC | 1.7 fold | 1.5 fold | 1 fold | 0.35 fold | 0.46 fold
M103205H795-MY264/M103202L889-SK1 (antibody, human IgG1, kappa, copies: 2 + 2) heavy: QVTLKESGPVLVKPTETLTLTCTVSGIDLSHDDISWVRQAPGKGLEWVGIISYAGSTYYASWAKGRLTISKDTSKNQVVLTMTNMDPVDTATYYCARGVPAYSHGGDLWGQGTLVTVSSASTKGPSVFPLAPSSKSTSGGTAALGCLVKDYFPEPVTVSWNSGALTSGVHTFPAVLQSSGLYSLSSVVTVPSSSLGTQTYICNVNHKPSNTKVDKKVEPKSCDKTHTCPPCPAPELLLGPSVFLFPPKPKDTLMISRTPEVTCVVVDVSDEDPEVKFNWYVDGVEVHNAKTKPREEQYNSTYRVVSVLTVLHQDWLNGKEYKCKVSNKALPKPIEKTISKAKGQPREPQVYTLPPSREEMTKNQVSLTCLVKGFYPSDIAVEWESNGQPENNYKTTPPVLDSDGSFFLYSKLTVDKSRWQQGNVFSCSVMHEALHNHYTQKSLSLSP light: DIVMTQSPATLSLSPGERATLSCTSSQSVYHANWLSWFQQKPGQPPKLLIYWASTLAYGVPSRFSGSGSGTDFTLTISSLQPEDAATYYCAGGYGGGRYAFGQGTKVEIKRTVAAPSVFIFPPSDEQLKSGTASVVCLLNNFYPREAKVQWKVDNALQSGNSQESVTEQDSKDSTYSLSSTLTLSKADYEKHKVYACEVTHQGLSSPVTKSFNRGEC | 0.9 fold | 0.5 fold | 0.6 fold | 0.01 fold | 0.1 fold
M103205H795-MY265/M103202L889-SK1 (antibody, human IgG1, kappa, copies: 2 + 2) heavy: QVTLKESGPVLVKPTETLTLTCTVSGIDLSHDDISWVRQAPGKGLEWVGIISYAGSTYYASWAKGRLTISKDTSKNQVVLTMTNMDPVDTATYYCARGVPAYSHGGDLWGQGTLVTVSSASTKGPSVFPLAPSSKSTSGGTAALGCLVKDYFPEPVTVSWNSGALTSGVHTFPAVLQSSGLYSLSSVVTVPSSSLGTQTYICNVNHKPSNTKVDKKVEPKSCDKTHTCPPCPAPELLTGPSVFLFPPKPKDTLMISRTPEVTCVVVDVSDEDPEVKFNWYVDGVEVHNAKTKPREEQYNSTYRVVSVLTVLHQDWLNGKEYKCKVSNKALPKPIEKTISKAKGQPREPQVYTLPPSREEMTKNQVSLTCLVKGFYPSDIAVEWESNGQPENNYKTTPPVLDSDGSFFLYSKLTVDKSRWQQGNVFSCSVMHEALHNHYTQKSLSLSP light: DIVMTQSPATLSLSPGERATLSCTSSQSVYHANWLSWFQQKPGQPPKLLIYWASTLAYGVPSRFSGSGSGTDFTLTISSLQPEDAATYYCAGGYGGGRYAFGQGTKVEIKRTVAAPSVFIFPPSDEQLKSGTASVVCLLNNFYPREAKVQWKVDNALQSGNSQESVTEQDSKDSTYSLSSTLTLSKADYEKHKVYACEVTHQGLSSPVTKSFNRGEC | 2.7 fold | 2.5 fold | 1.5 fold | 0.15 fold | 0.18 fold
M103205H795-MY267/M103202L889-SK1 (antibody, human IgG1, kappa, copies: 2 + 2) heavy: QVTLKESGPVLVKPTETLTLTCTVSGIDLSHDDISWVRQAPGKGLEWVGIISYAGSTYYASWAKGRLTISKDTSKNQVVLTMTNMDPVDTATYYCARGVPAYSHGGDLWGQGTLVTVSSASTKGPSVFPLAPSSKSTSGGTAALGCLVKDYFPEPVTVSWNSGALTSGVHTFPAVLQSSGLYSLSSVVTVPSSSLGTQTYICNVNHKPSNTKVDKKVEPKSCDKTHTCPPCPAPELLIGPSVFLFPPKPKDTLMISRTPEVTCVVVDVSDEDPEVKFNWYVDGVEVHNAKTKPREEQYNSTYRVVSVLTVLHQDWLNGKEYKCKVSNKALPKPIEKTISKAKGQPREPQVYTLPPSREEMTKNQVSLTCLVKGFYPSDIAVEWESNGQPENNYKTTPPVLDSDGSFFLYSKLTVDKSRWQQGNVFSCSVMHEALHNHYTQKSLSLSP light: DIVMTQSPATLSLSPGERATLSCTSSQSVYHANWLSWFQQKPGQPPKLLIYWASTLAYGVPSRFSGSGSGTDFTLTISSLQPEDAATYYCAGGYGGGRYAFGQGTKVEIKRTVAAPSVFIFPPSDEQLKSGTASVVCLLNNFYPREAKVQWKVDNALQSGNSQESVTEQDSKDSTYSLSSTLTLSKADYEKHKVYACEVTHQGLSSPVTKSFNRGEC | 2.6 fold | 2.5 fold | 1.3 fold | 0.05 fold | 0.13 fold
